According to article PMC10786891, “Massively parallel profiling of RNA-targeting CRISPR-Cas13d”:

T1: EsCas13d, nuclease-dead (Eubacterium siraeum, UniProt B0MS50, R295A;H300A;R849A;H854A)
T1 sequence: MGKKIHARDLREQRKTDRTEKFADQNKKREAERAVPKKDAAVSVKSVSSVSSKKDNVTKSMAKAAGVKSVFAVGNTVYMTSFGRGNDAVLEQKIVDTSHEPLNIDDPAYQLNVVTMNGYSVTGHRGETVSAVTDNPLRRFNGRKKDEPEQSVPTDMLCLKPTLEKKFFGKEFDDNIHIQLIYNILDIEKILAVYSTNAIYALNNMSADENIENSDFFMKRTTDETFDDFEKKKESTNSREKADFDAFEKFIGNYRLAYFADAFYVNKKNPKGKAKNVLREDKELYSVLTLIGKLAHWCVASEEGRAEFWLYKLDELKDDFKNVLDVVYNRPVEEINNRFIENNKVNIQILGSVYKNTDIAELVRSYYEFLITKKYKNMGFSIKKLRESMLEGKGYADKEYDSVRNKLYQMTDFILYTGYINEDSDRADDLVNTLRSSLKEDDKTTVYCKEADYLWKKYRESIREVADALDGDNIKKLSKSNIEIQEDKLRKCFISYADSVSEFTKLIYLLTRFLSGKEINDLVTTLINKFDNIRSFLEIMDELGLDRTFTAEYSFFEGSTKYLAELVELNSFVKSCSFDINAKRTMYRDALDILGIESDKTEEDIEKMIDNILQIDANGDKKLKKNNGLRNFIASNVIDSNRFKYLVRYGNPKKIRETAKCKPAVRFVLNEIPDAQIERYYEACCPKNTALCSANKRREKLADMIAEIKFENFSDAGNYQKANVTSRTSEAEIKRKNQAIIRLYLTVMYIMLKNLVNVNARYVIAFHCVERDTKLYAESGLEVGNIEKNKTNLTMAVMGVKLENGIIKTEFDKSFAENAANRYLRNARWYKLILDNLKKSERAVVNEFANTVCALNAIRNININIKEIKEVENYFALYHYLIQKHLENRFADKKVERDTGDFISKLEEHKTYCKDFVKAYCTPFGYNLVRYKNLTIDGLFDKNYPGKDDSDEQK


Each binder was assayed against T1, EsCas13d, nuclease-dead (assay: crRNA (strand 1, pre-loaded); Mg2+; 40 mM Tris-HCl pH 7.5, 150 mM NaCl, 6 mM MgCl2, 1 mM DTT, 0.1% Tween-20, 0.2 mg/ml BSA; 25 C; 10 min per concentration, then washed). Settings: tags: His6-TwinStrep-SUMO cleaved; N-terminal SNAP kept (SNAP-Surface 488); label: 3' end held by stalled T7 RNA polymerase.

Binder | Kd [µM]
target 1 insU 3' of 15,insA 3' of 2 (mixed) RNA 1: CACCCGUGCAAAAAUGCAGGGGUCUAAAACUGAGCGGAUAACCUCUCUAUGG RNA 2: GGGAAUGGAUCCACAUCUACGAAUUCGUACCAUAGAGUAGGUUAUCCGCUCAACCGAGAUCGGAAGAGCACACGU | 0.0109 ± 0.0011
target 1 U3C,U10A (mixed) RNA 1: CACCCGUGCAAAAAUGCAGGGGUCUAAAACUGAGCGGAUAACCUCUCUAUGG RNA 2: GGGAAUGGAUCCACAUCUACGAAUUCGUACCAUAGAGAGGUAAUCCGCCCACCGAGAUCGGAAGAGCACACGU | 0.09 ± 0.04
target 1 insG 3' of 9,insA 3' of 2 (mixed) RNA 1: CACCCGUGCAAAAAUGCAGGGGUCUAAAACUGAGCGGAUAACCUCUCUAUGG RNA 2: GGGAAUGGAUCCACAUCUACGAAUUCGUACCAUAGAGAGGUUAGUCCGCUCAACCGAGAUCGGAAGAGCACACGU | 0.0212 ± 0.0025
target 1 insC 3' of 13,insA 3' of 8 (mixed) RNA 1: CACCCGUGCAAAAAUGCAGGGGUCUAAAACUGAGCGGAUAACCUCUCUAUGG RNA 2: GGGAAUGGAUCCACAUCUACGAAUUCGUACCAUAGAGAGCGUUAUACCGCUCACCGAGAUCGGAAGAGCACACGU | 0.0166 ± 0.0006
target 1 insA 3' of 19,insG 3' of 2 (mixed) RNA 1: CACCCGUGCAAAAAUGCAGGGGUCUAAAACUGAGCGGAUAACCUCUCUAUGG RNA 2: GGGAAUGGAUCCACAUCUACGAAUUCGUACCAUAAGAGAGGUUAUCCGCUCGACCGAGAUCGGAAGAGCACACGU | 0.0195 ± 0.0013
target 1 U3G,C6G (mixed) RNA 1: CACCCGUGCAAAAAUGCAGGGGUCUAAAACUGAGCGGAUAACCUCUCUAUGG RNA 2: GGGAAUGGAUCCACAUCUACGAAUUCGUACCAUAGAGAGGUUAUCGGCGCACCGAGAUCGGAAGAGCACACGU | 0.00432 ± 0.00023
target 1 insU 3' of 14,insC 3' of 13 (mixed) RNA 1: CACCCGUGCAAAAAUGCAGGGGUCUAAAACUGAGCGGAUAACCUCUCUAUGG RNA 2: GGGAAUGGAUCCACAUCUACGAAUUCGUACCAUAGAGAUGCGUUAUCCGCUCACCGAGAUCGGAAGAGCACACGU | 0.029 ± 0.005
target 1 insC 3' of 10,insG 3' of 3 (mixed) RNA 1: CACCCGUGCAAAAAUGCAGGGGUCUAAAACUGAGCGGAUAACCUCUCUAUGG RNA 2: GGGAAUGGAUCCACAUCUACGAAUUCGUACCAUAGAGAGGUUCAUCCGCUGCACCGAGAUCGGAAGAGCACACGU | 0.0095 ± 0.0005
target 1 insU 3' of 22,insU 3' of 22 (mixed) RNA 1: CACCCGUGCAAAAAUGCAGGGGUCUAAAACUGAGCGGAUAACCUCUCUAUGG RNA 2: GGGAAUGGAUCCACAUCUACGAAUUCGUACUUCAUAGAGAGGUUAUCCGCUCACCGAGAUCGGAAGAGCACACGU | 0.031 ± 0.008
target 1 del14,del20 (mixed) RNA 1: CACCCGUGCAAAAAUGCAGGGGUCUAAAACUGAGCGGAUAACCUCUCUAUGG RNA 2: GGGAAUGGAUCCACAUCUACGAAUUCGUACCUAGAGGGUUAUCCGCUCACCGAGAUCGGAAGAGCACACGU | 0.072 ± 0.025
target 1 insC 3' of 16,insA 3' of 3 (mixed) RNA 1: CACCCGUGCAAAAAUGCAGGGGUCUAAAACUGAGCGGAUAACCUCUCUAUGG RNA 2: GGGAAUGGAUCCACAUCUACGAAUUCGUACCAUAGACGAGGUUAUCCGCUACACCGAGAUCGGAAGAGCACACGU | 0.062 ± 0.01
target 1 insC 3' of 15,insU 3' of 5 (mixed) RNA 1: CACCCGUGCAAAAAUGCAGGGGUCUAAAACUGAGCGGAUAACCUCUCUAUGG RNA 2: GGGAAUGGAUCCACAUCUACGAAUUCGUACCAUAGAGCAGGUUAUCCGUCUCACCGAGAUCGGAAGAGCACACGU | 0.0166 ± 0.0018
target 1 A1U,U8G (mixed) RNA 1: CACCCGUGCAAAAAUGCAGGGGUCUAAAACUGAGCGGAUAACCUCUCUAUGG RNA 2: GGGAAUGGAUCCACAUCUACGAAUUCGUACCAUAGAGAGGUUAGCCGCUCUCCGAGAUCGGAAGAGCACACGU | 0.0246 ± 0.001
target 1 del2,del15 (mixed) RNA 1: CACCCGUGCAAAAAUGCAGGGGUCUAAAACUGAGCGGAUAACCUCUCUAUGG RNA 2: GGGAAUGGAUCCACAUCUACGAAUUCGUACCAUAGAAGGUUAUCCGCUACCGAGAUCGGAAGAGCACACGU | 0.042 ± 0.007
target 1 insA 3' of 13,insA 3' of 2 (mixed) RNA 1: CACCCGUGCAAAAAUGCAGGGGUCUAAAACUGAGCGGAUAACCUCUCUAUGG RNA 2: GGGAAUGGAUCCACAUCUACGAAUUCGUACCAUAGAGAGAGUUAUCCGCUCAACCGAGAUCGGAAGAGCACACGU | 0.0031 ± 0.00028
target 1 insU 3' of 20,insA 3' of 3 (mixed) RNA 1: CACCCGUGCAAAAAUGCAGGGGUCUAAAACUGAGCGGAUAACCUCUCUAUGG RNA 2: GGGAAUGGAUCCACAUCUACGAAUUCGUACCAUUAGAGAGGUUAUCCGCUACACCGAGAUCGGAAGAGCACACGU | 0.0113 ± 0.0011
target 1 G15A,A16U (mixed) RNA 1: CACCCGUGCAAAAAUGCAGGGGUCUAAAACUGAGCGGAUAACCUCUCUAUGG RNA 2: GGGAAUGGAUCCACAUCUACGAAUUCGUACCAUAGUAAGGUUAUCCGCUCACCGAGAUCGGAAGAGCACACGU | 0.0243 ± 0.0023
target 1 U8C,U11C (mixed) RNA 1: CACCCGUGCAAAAAUGCAGGGGUCUAAAACUGAGCGGAUAACCUCUCUAUGG RNA 2: GGGAAUGGAUCCACAUCUACGAAUUCGUACCAUAGAGAGGCUACCCGCUCACCGAGAUCGGAAGAGCACACGU | 0.0122 ± 0.0006
target 1 insC 3' of 11,insG 3' of 6 (mixed) RNA 1: CACCCGUGCAAAAAUGCAGGGGUCUAAAACUGAGCGGAUAACCUCUCUAUGG RNA 2: GGGAAUGGAUCCACAUCUACGAAUUCGUACCAUAGAGAGGUCUAUCCGGCUCACCGAGAUCGGAAGAGCACACGU | 0.044 ± 0.008
target 1 U19A,C22A (mixed) RNA 1: CACCCGUGCAAAAAUGCAGGGGUCUAAAACUGAGCGGAUAACCUCUCUAUGG RNA 2: GGGAAUGGAUCCACAUCUACGAAUUCGUAACAAAGAGAGGUUAUCCGCUCACCGAGAUCGGAAGAGCACACGU | 0.056 ± 0.007
target 1 insU 3' of 15,insC 3' of 1 (mixed) RNA 1: CACCCGUGCAAAAAUGCAGGGGUCUAAAACUGAGCGGAUAACCUCUCUAUGG RNA 2: GGGAAUGGAUCCACAUCUACGAAUUCGUACCAUAGAGUAGGUUAUCCGCUCACCCGAGAUCGGAAGAGCACACGU | 0.0088 ± 0.0005
target 1 insC 3' of 11,insU 3' of 4 (mixed) RNA 1: CACCCGUGCAAAAAUGCAGGGGUCUAAAACUGAGCGGAUAACCUCUCUAUGG RNA 2: GGGAAUGGAUCCACAUCUACGAAUUCGUACCAUAGAGAGGUCUAUCCGCUUCACCGAGAUCGGAAGAGCACACGU | 0.0232 ± 0.0018
target 1 A9U,C22A (mixed) RNA 1: CACCCGUGCAAAAAUGCAGGGGUCUAAAACUGAGCGGAUAACCUCUCUAUGG RNA 2: GGGAAUGGAUCCACAUCUACGAAUUCGUAACAUAGAGAGGUUUUCCGCUCACCGAGAUCGGAAGAGCACACGU | 0.0169 ± 0.0009
target 1 insG 3' of 10,insG 3' of 2 (mixed) RNA 1: CACCCGUGCAAAAAUGCAGGGGUCUAAAACUGAGCGGAUAACCUCUCUAUGG RNA 2: GGGAAUGGAUCCACAUCUACGAAUUCGUACCAUAGAGAGGUUGAUCCGCUCGACCGAGAUCGGAAGAGCACACGU | 0.0346 ± 0.0031
target 1 insU 3' of 22,insA 3' of 3 (mixed) RNA 1: CACCCGUGCAAAAAUGCAGGGGUCUAAAACUGAGCGGAUAACCUCUCUAUGG RNA 2: GGGAAUGGAUCCACAUCUACGAAUUCGUACUCAUAGAGAGGUUAUCCGCUACACCGAGAUCGGAAGAGCACACGU | 0.0315 ± 0.0028
target 1 U10A,U11C (mixed) RNA 1: CACCCGUGCAAAAAUGCAGGGGUCUAAAACUGAGCGGAUAACCUCUCUAUGG RNA 2: GGGAAUGGAUCCACAUCUACGAAUUCGUACCAUAGAGAGGCAAUCCGCUCACCGAGAUCGGAAGAGCACACGU | 0.00996 ± 0.00033
target 1 U3C,U11A (mixed) RNA 1: CACCCGUGCAAAAAUGCAGGGGUCUAAAACUGAGCGGAUAACCUCUCUAUGG RNA 2: GGGAAUGGAUCCACAUCUACGAAUUCGUACCAUAGAGAGGAUAUCCGCCCACCGAGAUCGGAAGAGCACACGU | ~0.058
target 1 U11G,G13A (mixed) RNA 1: CACCCGUGCAAAAAUGCAGGGGUCUAAAACUGAGCGGAUAACCUCUCUAUGG RNA 2: GGGAAUGGAUCCACAUCUACGAAUUCGUACCAUAGAGAAGGUAUCCGCUCACCGAGAUCGGAAGAGCACACGU | 0.0166 ± 0.0016
